# Measurements published in the supplement of paper PMC7877785.
# ± gives the uncertainty stated by the source.
# Experiment: self-splicing fitness, log relative to wild type (ln ratio); higher = more splicing; Tetrahymena group I intron in knt gene, E. coli kanamycin selection, DiMSum; sequences stand for … in CUCUCU…GGAGGGAAAAGUUAUCAGGCAUGCACCUGGUAGCUAGUCUUUAAACCAAUAGAUUGCAUCGGUUUAAAAGGCAAGACCGUCAAAUUGCGGGAAAGGGGUCAACAGCCGUUCAGUACCAAGUCUCAGGGGAAACUUUGAGAUGGCCUUGCAAAGGGUAUGGUAAUAAGCUGACGGACAUGGUCCUAACCACGCAGCCAAGUCCUAAGUCAACAGAUCUUCUGUUGAUAUGGAUGCAGUUCACAGACUAAAUGUCGGUCGGGGAAGAUGUAUUCUUCUCAUAAGAUAUAGUCGGACCUCUCCUUAAUGGGAGCUAGCGGAUGAAGUGAUGCAACACUGGAGCCGCUGGGAACUAAUUUGUAUGCGAAAGUAUAUUGAUUAGUUUUGGAGUACUCGUGGUCG
# In short: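 Library with all eight P1ex-region intron nucleotides randomised, intron inside the knt kanamycin-resistance gene on pET-22b(+), in E. coli BL21(DE3). Cells grew overnight at 37°C or 30°C on LB agar with or without 25 μg/mL kanamycin (plus 100 μg/mL carbenicillin, 50 μM IPTG, 0.2% rhamnose), in six replicate transformations. Pooled colonies were amplicon-sequenced on Illumina HiSeq 2500. DiMSum fitness is the error-weighted combination of wild-type-normalised replicate fold changes, kanamycin versus none.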
Sequence,self-splicing fitness (ln) (30 °C),self-splicing fitness (ln) (37 °C)
AACAAGCAAUAUUACGAACC,-1.27 ± 0.12,0.0146 ± 0.19
UUUGAGCAAUAUUACGUAAA,-1.16 ± 0.15,-1.45 ± 0.2
UAAGAGCAAUAUUACGUCUC,-4.3 ± 0.34,-2.31 ± 0.21
GGUUAGCAAUAUUACGGAAU,-2.21 ± 0.25,-1.01 ± 0.25
UUGGAGCAAUAUUACGACAU,-1.81 ± 0.02,-1.04 ± 0.036
GACGAGCAAUAUUACGCGUG,-3.11 ± 0.29,-1.77 ± 0.21
AGAAAGCAAUAUUACGCCGU,-0.929 ± 0.11,-0.341 ± 0.13
AUAAAGCAAUAUUACGGCGG,-0.248 ± 0.062,-0.197 ± 0.077
GUGAAGCAAUAUUACGAUCC,-3.08 ± 0.31,0.244 ± 0.18
UAUAAGCAAUAUUACGGUGC,-2.46 ± 0.19,-3.09 ± 0.3
UUACAGCAAUAUUACGGUAA,-2.33 ± 0.2,-1.68 ± 0.17
CCAGAGCAAUAUUACGGGGC,-3.91 ± 0.24,-2.8 ± 0.21
AAGUAGCAAUAUUACGGAUA,-2.1 ± 0.17,-1.66 ± 0.16
GUCAAGCAAUAUUACGUCGC,-3.74 ± 0.21,-2.13 ± 0.19
GAAGAGCAAUAUUACGCCCG,-1.59 ± 0.47,
AUCAAGCAAUAUUACGCAUA,-1.94 ± 0.099,-0.751 ± 0.084
AGCAAGCAAUAUUACGGGUA,-1.32 ± 0.081,-0.594 ± 0.09
GAACAGCAAUAUUACGUAUG,-1.02 ± 0.091,-0.888 ± 0.12
GAACAGCAAUAUUACGAAUG,-2.42 ± 0.092,-1.52 ± 0.096

Sequence,self-splicing fitness (ln) (30 °C),self-splicing fitness (ln) (37 °C)
UCAAAGCAAUAUUACGAGUA,-2.07 ± 0.083,-0.678 ± 0.072
GAUCAGCAAUAUUACGCCGA,-0.954 ± 0.12,-0.727 ± 0.11
UGGUAGCAAUAUUACGUACG,-1.02 ± 0.19,-0.203 ± 0.23
UGGAAGCAAUAUUACGCCCA,,-0.992 ± 0.45
AACUAGCAAUAUUACGCGCC,-1.34 ± 0.12,-0.314 ± 0.12
CGACAGCAAUAUUACGCAAC,-4.32 ± 0.31,-2.61 ± 0.27
UUCUAGCAAUAUUACGGCAG,0.185 ± 0.42,-0.821 ± 0.39
CGAUAGCAAUAUUACGAAUC,-3.74 ± 0.22,-3.08 ± 0.28
UCCUAGCAAUAUUACGAUAG,-2.89 ± 0.33,-2.14 ± 0.35
ACUGAGCAAUAUUACGUCGU,-2.87 ± 0.16,-1.96 ± 0.14
ACUCAGCAAUAUUACGAUGC,-0.776 ± 0.066,-0.0529 ± 0.075
CCUUAGCAAUAUUACGGUAU,-3.64 ± 0.33,-2.67 ± 0.36
AUCUAGCAAUAUUACGGGGG,-1.65 ± 0.11,-1.9 ± 0.15
GAUAAGCAAUAUUACGAACU,-0.896 ± 0.079,-0.073 ± 0.11
UGUCAGCAAUAUUACGCGAU,-3.41 ± 0.4,-2.2 ± 0.34
CACCAGCAAUAUUACGCAAC,-2.68 ± 0.48,-2.85 ± 0.28
AGCGAGCAAUAUUACGGUUU,-2.1 ± 0.18,-0.574 ± 0.15
UGUCAGCAAUAUUACGCGUC,-2.7 ± 0.3,-1.51 ± 0.29
GCGGAGCAAUAUUACGUGCA,-2.52 ± 0.29,-0.813 ± 0.18
